Assay results taken from patent EP4019090A1.
Substitutions are numbered along the chain they refer to. Each block holds one binder with its values, some of them ahead of it.

Experiments:
Human IL-4R-Fc (human) [1] = target: Human IL-4R-Fc (human) (UniProt P24394); assay: SPR
[2] = target: Biotinylated IL-4R (human) (UniProt P24394); assay: competitive ELISA; IL-4 coated, biotinylated IL-4R preincubated with scFv, streptavidin-HRP
[3] = target: Biotinylated IL-4R (human) (UniProt P24394); assay: competitive ELISA; IL-4 coated, biotinylated IL-4R preincubated with scFv; reference dupilumab
Human IL-4R-Fc (human) [4] = target: Human IL-4R-Fc (human) (UniProt P24394); assay: SPR (Biacore T200); human IL-4R-Fc captured via anti-human IgG-Fc, scFv as analyte; 1:1 model

Chain of Human IL-4R-Fc (human) (P24394 26-232 limits assumed): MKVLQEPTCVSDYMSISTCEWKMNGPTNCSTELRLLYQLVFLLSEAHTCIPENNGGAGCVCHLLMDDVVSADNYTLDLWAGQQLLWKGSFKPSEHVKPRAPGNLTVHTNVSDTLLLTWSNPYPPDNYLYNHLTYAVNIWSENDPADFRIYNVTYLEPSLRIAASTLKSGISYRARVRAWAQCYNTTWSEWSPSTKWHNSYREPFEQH
Chain of Biotinylated IL-4R (human) (P24394 26-232 limits assumed): as above

Kd (Human IL-4R-Fc (human) [1]): < 0.5 nM
IC50 [2]: 0.54 ng/mL
rel. IC50 (IC50, dupilumab/IC50 test sample) [3]: 3.46
B1: PRO1517 (scFv, from another filing)
scFv: DIQMTQSPSSLSASVGDRVTITCQASEDIESYLAWYQQKPGKAPKLLIYRASTLAYGVPSRFSGSGSGTDFTLTISSLQPEDFATYYCLGSSYSTGSNIFGTGTKVTVLGGGGGSGGGGSGGGGSGGGGSEVQLVESGGGLVQPGGSLRLSCAASGFSSSSAHYMCWVRQAPGKGLEWIGCIYAGSRGSTYYASWAKGRFTISRDNSKNTVYLQMNSLRAEDTAVYYCARAAFVNRGVSWIWPYYFSLWGQGTLVTVSS

Kd (Human IL-4R-Fc (human) [1]): < 0.5 nM
IC50 [2]: 1.92 ng/mL
rel. IC50 (IC50, dupilumab/IC50 test sample) [3]: 0.98
Kd (Human IL-4R-Fc (human) [4]): 0.0199 nM
koff (Human IL-4R-Fc (human) [4]): 5.42e-05 s⁻¹
kon (Human IL-4R-Fc (human) [4]): 2.72e+06 M⁻¹ s⁻¹
B2: PRO1535 (scFv, from another filing)
scFv: B1 scFv with A43P, V132S, G180A, R204K, Y227F
